According to the RNAGym collection of RNA variant scans (doi:10.7554/elife.90254):

B1: LINE1-mini (parent)
chain: GGCAGAGCUCAACACAGCGUGGCAAAGUGGCUGUGGCUAGACUGCC

Variants of: B1
Experiment: self-cleavage, relative activity (ratio to wild type); higher = more cleavage; in vitro, sequencing; the parent is a self-cleaving ribozyme

Row | Variant | self-cleavage
1 | GGCAGCGCUCAACACAGCGUGGCAAAGUGGCUGUGGCUAAACUGCC | 0.11
2 | GGCAGCGCUCAACACAGCGUGGCAAAGUGGCUGUGGCUACACUGCC | 0.1
3 | GGCAGCGCUCAACACAGCGUGGCAAAGUGGCUGUGGCUAUACUGCC | 0.15
4 | GGCAGCGCUCAACACAGCGUGGCAAAGUGGCUGAGGCUAGACUGCC | 0.05
5 | GGCAGCGCUCAACACAGCGUGGCAAAGUGGCUGCGGCUAGACUGCC | 0.11
6 | GGCAGCGCUCAACACAGCGUGGCAAAGUGGCUGGGGCUAGACUGCC | 0.25
7 | GGCAGCGCUCAACACAGCGUGGCGAAGUGGCUGUGGCUAGACUGCC | 0.49
8 | GGCAGCGCUCAACACAGCGUGGCCAAGUGGCUGUGGCUAGACUGCC | 0.41
9 | GGCAGCGCUCAACACAGCGUGGCUAAGUGGCUGUGGCUAGACUGCC | 1.07
10 | GGCAGCGCUCAAUACAGCGUGGCAAAGUGGCUGUGGCUAGACUGCC | 0.14
11 | GGCAGCGCUCAAGACAGCGUGGCAAAGUGGCUGUGGCUAGACUGCC | 0.15
12 | GGCAGCGCUCAAAACAGCGUGGCAAAGUGGCUGUGGCUAGACUGCC | 0.12
13 | GGCAGCGCUCAACACAGCGUGGCAAAGUGGCUGUGGCUAGACUUCC | 0.18
14 | GGCAGCGCUCAACACAGCGUGGCAAAGUGGCUGUGGCUAGACUCCC | 0.24
15 | GGCAGCGCUCAACACAGCGUGGCAAAGUGGCUGUGGCUAGACUACC | 0.22
16 | GGCAGCGCUCAACACAGCGUGACAAAGUGGCUGUGGCUAGACUGCC | 0.66
17 | GGCAGCGCUCAACACAGCGUGUCAAAGUGGCUGUGGCUAGACUGCC | 0.57
18 | GGCAGCGCUCAACACAGCGUGCCAAAGUGGCUGUGGCUAGACUGCC | 0.65
19 | GGCAGCGCUCAACACAGCGUGGCAAAGUGGCUGUGGCUAGACUGCG | 0.46
20 | GGCAGCGCUCAACACAGCGUGGCAAAGUGGCUGUGGCUAGACUGCA | 0.5
21 | GGCAGCGCUCAACACAGCGUGGCAAAGUGGCUGUGGCUAGACUGCU | 0.89
22 | GGCAGCGCUCAACACAGCGUGGCAAACUGGCUGUGGCUAGACUGCC | 0.57
23 | GGCAGCGCUCAACACAGCGUGGCAAAAUGGCUGUGGCUAGACUGCC | 0.5

Row | Variant | self-cleavage
24 | GGCAGCGCUCAACACAGCGUGGCAAAUUGGCUGUGGCUAGACUGCC | 0.56
25 | GGCAGCGCUCAACACAGCGUGGCAAAGCGGCUGUGGCUAGACUGCC | 0.36
26 | GGCAGCGCUCAACACAGCGUGGCAAAGGGGCUGUGGCUAGACUGCC | 0.2
27 | GGCAGCGCUCAACACAGCGUGGCAAAGAGGCUGUGGCUAGACUGCC | 0.64
28 | GGCAGCGCUCAACACAGCGUGGCAAAGUGGCUGUUGCUAGACUGCC | 0.09
29 | GGCAGCGCUCAACACAGCGUGGCAAAGUGGCUGUCGCUAGACUGCC | 0.05
30 | GGCAGCGCUCAACACAGCGUGGCAAAGUGGCUGUAGCUAGACUGCC | 0.08
31 | GGCAGCGCUCAACACGGCGUGGCAAAGUGGCUGUGGCUAGACUGCC | 0.22
32 | GGCAGCGCUCAACACUGCGUGGCAAAGUGGCUGUGGCUAGACUGCC | 0.09
33 | GGCAGCGCUCAACACCGCGUGGCAAAGUGGCUGUGGCUAGACUGCC | 0.1
34 | GGCAGCGCUCAACACAACGUGGCAAAGUGGCUGUGGCUAGACUGCC | 0.17
35 | GGCAGCGCUCAACACAUCGUGGCAAAGUGGCUGUGGCUAGACUGCC | 0.11
36 | GGCAGCGCUCAACACACCGUGGCAAAGUGGCUGUGGCUAGACUGCC | 1.47
37 | GGCAGCGCCCAACACAGCGUGGCAAAGUGGCUGUGGCUAGACUGCC | 0.03
38 | GGCAGCGCGCAACACAGCGUGGCAAAGUGGCUGUGGCUAGACUGCC | 0.11
39 | GGCAGCGCACAACACAGCGUGGCAAAGUGGCUGUGGCUAGACUGCC | 0.18
40 | GGCAGCGAUCAACACAGCGUGGCAAAGUGGCUGUGGCUAGACUGCC | 0.26
41 | GGCAGCGGUCAACACAGCGUGGCAAAGUGGCUGUGGCUAGACUGCC | 0.07
42 | GGCAGCGUUCAACACAGCGUGGCAAAGUGGCUGUGGCUAGACUGCC | 0.51
43 | GGCAGCGCUCAACACAGCGUGGCAAAGUGGCUGUGCCUAGACUGCC | 0.16
44 | GGCAGCGCUCAACACAGCGUGGCAAAGUGGCUGUGUCUAGACUGCC | 0.06
45 | GGCAGCGCUCAACACAGCGUGGCAAAGUGGCUGUGACUAGACUGCC | 0.31
46 | GGCAGCGCUCAACACAGCGUGGCAAAGUGGCUGUGGUUAGACUGCC | 0.12

Row | Variant | self-cleavage
47 | GGCAGCGCUCAACACAGCGUGGCAAAGUGGCUGUGGAUAGACUGCC | 0.34
48 | GGCAGCGCUCAACACAGCGUGGCAAAGUGGCUGUGGGUAGACUGCC | 0.03
49 | GGCAGCGCUCAACACAGCGUGGCAAAGUGUCUGUGGCUAGACUGCC | 0.9
50 | GGCAGCGCUCAACACAGCGUGGCAAAGUGACUGUGGCUAGACUGCC | 1.01
51 | GGCAGCGCUCAACACAGCGUGGCAAAGUGCCUGUGGCUAGACUGCC | 0.2
52 | GGCAGCGCUCAACACAGCGUGGCAAAGUCGCUGUGGCUAGACUGCC | 0.36
53 | GGCAGCGCUCAACACAGCGUGGCAAAGUUGCUGUGGCUAGACUGCC | 0.61
54 | GGCAGCGCUCAACACAGCGUGGCAAAGUAGCUGUGGCUAGACUGCC | 0.7
55 | GGCAGCGCUCAACACAGCGUGGUAAAGUGGCUGUGGCUAGACUGCC | 0.62
56 | GGCAGCGCUCAACACAGCGUGGGAAAGUGGCUGUGGCUAGACUGCC | 0.43
57 | GGCAGCGCUCAACACAGCGUGGAAAAGUGGCUGUGGCUAGACUGCC | 0.5
58 | GGCAGCGCUCAACAGAGCGUGGCAAAGUGGCUGUGGCUAGACUGCC | 0.04
59 | GGCAGCGCUCAACAUAGCGUGGCAAAGUGGCUGUGGCUAGACUGCC | 0.66
60 | GGCAGCGCUCAACAAAGCGUGGCAAAGUGGCUGUGGCUAGACUGCC | 0.1
61 | GGCAGCGCUCAACACAGCGUGGCAAAGUGGCAGUGGCUAGACUGCC | 0.03
62 | GGCAGCGCUCAACACAGCGUGGCAAAGUGGCGGUGGCUAGACUGCC | 0.05
63 | GGCAGCGCUCAACACAGCGUGGCAAAGUGGCCGUGGCUAGACUGCC | 0.05
64 | GGCAGCGCUCAACACAGCGUGGCAGAGUGGCUGUGGCUAGACUGCC | 0.18
65 | GGCAGCGCUCAACACAGCGUGGCACAGUGGCUGUGGCUAGACUGCC | 0.5
66 | GGCAGCGCUCAACACAGCGUGGCAUAGUGGCUGUGGCUAGACUGCC | 0.52
67 | GGCAGCGCUCAACACAGCGUGGCAAAGUGGCUGUGGCUAGUCUGCC | 0.1
68 | GGCAGCGCUCAACACAGCGUGGCAAAGUGGCUGUGGCUAGCCUGCC | 0.04
69 | GGCAGCGCUCAACACAGCGUGGCAAAGUGGCUGUGGCUAGGCUGCC | 1.17

Row | Variant | self-cleavage
70 | GGCAGCGCUCAACACAGAGUGGCAAAGUGGCUGUGGCUAGACUGCC | 0.2
71 | GGCAGCGCUCAACACAGUGUGGCAAAGUGGCUGUGGCUAGACUGCC | 1.1
72 | GGCAGCGCUCAACACAGGGUGGCAAAGUGGCUGUGGCUAGACUGCC | 0.24
73 | GGCAGCGCUCAACACAGCCUGGCAAAGUGGCUGUGGCUAGACUGCC | 0.3
74 | GGCAGCGCUCAACACAGCUUGGCAAAGUGGCUGUGGCUAGACUGCC | 0.56
75 | GGCAGCGCUCAACACAGCAUGGCAAAGUGGCUGUGGCUAGACUGCC | 1.02
76 | GGCAGCGCUCAACACAGCGUGGCAAAGUGGCUGUGGCUAGACUGUC | 0.7
77 | GGCAGCGCUCAACACAGCGUGGCAAAGUGGCUGUGGCUAGACUGAC | 0.47
78 | GGCAGCGCUCAACACAGCGUGGCAAAGUGGCUGUGGCUAGACUGGC | 0.09
79 | GGCAGCGCUCAACACAGCGUGGCAAAGUGGCUGUGGCAAGACUGCC | 0.28
80 | GGCAGCACUCAACACAGCGUGGCAAAGUGGCUGUGGCUAGACUGCC | 0.18
81 | GGCAGCUCUCAACACAGCGUGGCAAAGUGGCUGUGGCUAGACUGCC | 0.1
82 | GGCAGCCCUCAACACAGCGUGGCAAAGUGGCUGUGGCUAGACUGCC | 0.08
83 | GGCAGCGCUCAACACAGCGUUGCAAAGUGGCUGUGGCUAGACUGCC | 0.44
84 | GGCAGCGCUCAACACAGCGUCGCAAAGUGGCUGUGGCUAGACUGCC | 0.42
85 | GGCAGCGCUCAACACAGCGUAGCAAAGUGGCUGUGGCUAGACUGCC | 1.34
86 | GGCAGCGCUCAACACAGCGUGGCAAAGUGGCUGUGGCUUGACUGCC | 0.68
87 | GGCAGCGCUCAACACAGCGUGGCAAAGUGGCUGUGGCUCGACUGCC | 0.23
88 | GGCAGCGCUCAACACAGCGUGGCAAAGUGGCUGUGGCUGGACUGCC | 0.1
89 | GGCAGCGCUCAACACAGCGUGGCAAAGUGGCUGUGGCUAGAGUGCC | 0.02
90 | GGCAGCGCUCAACACAGCGUGGCAAAGUGGCUGUGGCUAGAUUGCC | 0.23
91 | GGCAGCGCUCAACACAGCGUGGCAAAGUGGCUGUGGCUAGAAUGCC | 0.11
92 | GGCAGCGCUUAACACAGCGUGGCAAAGUGGCUGUGGCUAGACUGCC | 0.15

Row | Variant | self-cleavage
93 | GGCAGCGCUGAACACAGCGUGGCAAAGUGGCUGUGGCUAGACUGCC | 0.05
94 | GGCAGCGCUAAACACAGCGUGGCAAAGUGGCUGUGGCUAGACUGCC | 0.11
95 | GGCAGCGCUCAACACAGCGUGGCAAUGUGGCUGUGGCUAGACUGCC | 0.77
96 | GGCAGCGCUCAACACAGCGUGGCAACGUGGCUGUGGCUAGACUGCC | 0.48
97 | GGCAGCGCUCAACACAGCGUGGCAAGGUGGCUGUGGCUAGACUGCC | 0.65
98 | GGCAGCGCUCAACACAGCGUGGCAAAGUGGCUCUGGCUAGACUGCC | 0.07
99 | GGCAGCGCUCAACACAGCGUGGCAAAGUGGCUAUGGCUAGACUGCC | 0.06
100 | GGCAGCGCUCAACACAGCGUGGCAAAGUGGCUUUGGCUAGACUGCC | 0.09
101 | GGCAGCGCUCAACACAGCGAGGCAAAGUGGCUGUGGCUAGACUGCC | 0.52
102 | GGCAGCGCUCAACACAGCGGGGCAAAGUGGCUGUGGCUAGACUGCC | 0.35
103 | GGCAGCGCUCAACACAGCGCGGCAAAGUGGCUGUGGCUAGACUGCC | 0.33
104 | GGCAGCGCUCAACUCAGCGUGGCAAAGUGGCUGUGGCUAGACUGCC | 0.22
105 | GGCAGCGCUCAACCCAGCGUGGCAAAGUGGCUGUGGCUAGACUGCC | 0.13
106 | GGCAGCGCUCAACGCAGCGUGGCAAAGUGGCUGUGGCUAGACUGCC | 0.16
107 | GGCAGCGCUCAACACAGCGUGGCAAAGUGGAUGUGGCUAGACUGCC | 0.11
108 | GGCAGCGCUCAACACAGCGUGGCAAAGUGGGUGUGGCUAGACUGCC | 0.09
109 | GGCAGCGCUCAACACAGCGUGGCAAAGUGGUUGUGGCUAGACUGCC | 0.22
110 | GGCAGCGCUCACCACAGCGUGGCAAAGUGGCUGUGGCUAGACUGCC | 0.06
111 | GGCAGCGCUCAUCACAGCGUGGCAAAGUGGCUGUGGCUAGACUGCC | 0.16
112 | GGCAGCGCUCAGCACAGCGUGGCAAAGUGGCUGUGGCUAGACUGCC | 0.04
